{"source": "paper PMC10866885", "key": {"[1]": {"molecular_target": "wild-type human VEGFR1 fused to mCherry (human) (UniProt P17948)"}, "[2]": {"molecular_target": "VEGFR1 C471R mutant fused to mCherry (human) (UniProt P17948)"}}}
{"substance": "VEGF165 (ligand)", "values": [{"measurement": "diffusion coefficient (D confocal) of VEGFR1-mCherry on the plasma membrane of CHO cells by FRAP after 100 nM VEGF165, read as receptor dimerization", "setting": "[1]", "result": 0.018, "unit": "µm^2 s^−1"}, {"measurement": "diffusion coefficient (D confocal) of VEGFR1 C471R-mCherry on the plasma membrane of CHO cells by FRAP after 100 nM VEGF165, read as receptor dimerization", "setting": "[2]", "result": 0.017, "unit": "µm^2 s^−1"}]}
